Where a chain is given by its changes, count along the chain named.
Key:
[1] = target: FcRn (Acro Biosystems) (human, UniProt P55899 24-297; P61769 21-119); assay: BLI (Fortebio), FcRn loaded on HIS1K probe, pH 7.0
Experimental: (§1) The variant proteins were tested for affinity to FcRn at pH 7.0. The affinity of the antibody fragment for the receptor was determined using Fortebio. FcRn (Acro Biosystems) was loaded at 0.8 nm with an HIS1K probe, bound to the variant protein at various concentrations for 60 seconds and dissociated for 300 seconds.

[2] = target: T1, FcγRIIa-131R (Acro Biosystems) (UniProt P12318 36-218, limits assumed); assay: BLI (Fortebio), FcγR loaded on HIS1K probe, pH 7.0
T1 construct: The 131H/R allotypes are those of the human receptor
T1 sequence (looked up): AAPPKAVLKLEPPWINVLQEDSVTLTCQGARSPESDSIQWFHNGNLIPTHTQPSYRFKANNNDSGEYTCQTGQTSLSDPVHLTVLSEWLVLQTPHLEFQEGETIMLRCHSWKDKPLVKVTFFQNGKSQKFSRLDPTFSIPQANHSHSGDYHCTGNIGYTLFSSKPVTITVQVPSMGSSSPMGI
Experimental: as §1, with “to FcγRI, FcγRIIa-131H, FcγRIIa-131R, FcγRIIb, FcγRIIIa-158F, FcγRIIIa-158V” for “to FcRn”, “Fortebio. Different FcγR” for “Fortebio. FcRn”, “at 0.5” for “at 0.8”, “for 60” for “for 300”

[3] = target: T2, FcγRIIIa-158V (Acro Biosystems) (UniProt P08637 17-208); assay: BLI (Fortebio), FcγR loaded on HIS1K probe, pH 7.0
T2 construct: The 158V/F allotypes are those of the human receptor
Experimental: as §1, with “to FcγRI, FcγRIIa-131H, FcγRIIa-131R, FcγRIIb, FcγRIIIa-158F, FcγRIIIa-158V” for “to FcRn”, “Fortebio. Different FcγR” for “Fortebio. FcRn”, “at 0.5” for “at 0.8”, “for 60” for “for 300”

[4] = target: T3, FcγRIIa-131H (Acro Biosystems) (UniProt P12318 36-218, limits assumed); assay: BLI (Fortebio), FcγR loaded on HIS1K probe, pH 7.0
T3 construct: The 131H/R allotypes are those of the human receptor
T3 sequence (looked up): T1 sequence (looked up) with R132H
Experimental: as §1, with “to FcγRI, FcγRIIa-131H, FcγRIIa-131R, FcγRIIb, FcγRIIIa-158F, FcγRIIIa-158V” for “to FcRn”, “Fortebio. Different FcγR” for “Fortebio. FcRn”, “at 0.5” for “at 0.8”, “for 60” for “for 300”

[5] = target: T4, FcγRIIb (Acro Biosystems) (UniProt P31994 46-217, limits assumed); assay: BLI (Fortebio), FcγR loaded on HIS1K probe, pH 7.0
T4 sequence (looked up): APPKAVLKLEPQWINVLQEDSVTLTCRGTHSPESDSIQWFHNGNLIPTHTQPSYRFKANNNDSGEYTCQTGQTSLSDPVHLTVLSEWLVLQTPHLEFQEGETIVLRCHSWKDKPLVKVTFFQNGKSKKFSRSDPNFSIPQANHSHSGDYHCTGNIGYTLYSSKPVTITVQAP
Experimental: as §1, with “to FcγRI, FcγRIIa-131H, FcγRIIa-131R, FcγRIIb, FcγRIIIa-158F, FcγRIIIa-158V” for “to FcRn”, “Fortebio. Different FcγR” for “Fortebio. FcRn”, “at 0.5” for “at 0.8”, “for 60” for “for 300”

[6] = target: T5, FcγRIIIa-158F (Acro Biosystems) (UniProt P08637 17-208); assay: BLI (Fortebio), FcγR loaded on HIS1K probe, pH 7.0
T5 construct: The 158V/F allotypes are those of the human receptor
Experimental: as §1, with “to FcγRI, FcγRIIa-131H, FcγRIIa-131R, FcγRIIb, FcγRIIIa-158F, FcγRIIIa-158V” for “to FcRn”, “Fortebio. Different FcγR” for “Fortebio. FcRn”, “at 0.5” for “at 0.8”, “for 60” for “for 300”

[7] = target: T6, FcγRI (Acro Biosystems) (UniProt P12314 16-288, limits assumed); assay: BLI (Fortebio), FcγR loaded on HIS1K probe, pH 7.0
T6 construct: also called CD64
Experimental: as §1, with “to FcγRI, FcγRIIa-131H, FcγRIIa-131R, FcγRIIb, FcγRIIIa-158F, FcγRIIIa-158V” for “to FcRn”, “Fortebio. Different FcγR” for “Fortebio. FcRn”, “at 0.5” for “at 0.8”, “for 60” for “for 300”

[8] = target: T1, FcγRIIa-131R (Acro Biosystems); assay: BLI (Fortebio), ratio of KD against m1
Experimental: as §1, with “to FcγRI, FcγRIIa-131H, FcγRIIa-131R, FcγRIIb, FcγRIIIa-158F, FcγRIIIa-158V” for “to FcRn”, “Fortebio. Different FcγR” for “Fortebio. FcRn”, “at 0.5” for “at 0.8”, “for 60” for “for 300”

[9] = target: T2, FcγRIIIa-158V (Acro Biosystems); assay: BLI (Fortebio), ratio of KD against m1
Experimental: as §1, with “to FcγRI, FcγRIIa-131H, FcγRIIa-131R, FcγRIIb, FcγRIIIa-158F, FcγRIIIa-158V” for “to FcRn”, “Fortebio. Different FcγR” for “Fortebio. FcRn”, “at 0.5” for “at 0.8”, “for 60” for “for 300”

[10] = target: T3, FcγRIIa-131H (Acro Biosystems); assay: BLI (Fortebio), ratio of KD against m1
Experimental: as §1, with “to FcγRI, FcγRIIa-131H, FcγRIIa-131R, FcγRIIb, FcγRIIIa-158F, FcγRIIIa-158V” for “to FcRn”, “Fortebio. Different FcγR” for “Fortebio. FcRn”, “at 0.5” for “at 0.8”, “for 60” for “for 300”

[11] = target: T4, FcγRIIb (Acro Biosystems); assay: BLI (Fortebio), ratio of KD against m1
Experimental: as §1, with “to FcγRI, FcγRIIa-131H, FcγRIIa-131R, FcγRIIb, FcγRIIIa-158F, FcγRIIIa-158V” for “to FcRn”, “Fortebio. Different FcγR” for “Fortebio. FcRn”, “at 0.5” for “at 0.8”, “for 60” for “for 300”

[12] = target: T5, FcγRIIIa-158F (Acro Biosystems); assay: BLI (Fortebio), ratio of KD against m1
Experimental: as §1, with “to FcγRI, FcγRIIa-131H, FcγRIIa-131R, FcγRIIb, FcγRIIIa-158F, FcγRIIIa-158V” for “to FcRn”, “Fortebio. Different FcγR” for “Fortebio. FcRn”, “at 0.5” for “at 0.8”, “for 60” for “for 300”

[13] = target: T6, FcγRI (Acro Biosystems); assay: BLI (Fortebio), ratio of KD against m1
Experimental: as §1, with “to FcγRI, FcγRIIa-131H, FcγRIIa-131R, FcγRIIb, FcγRIIIa-158F, FcγRIIIa-158V” for “to FcRn”, “Fortebio. Different FcγR” for “Fortebio. FcRn”, “at 0.5” for “at 0.8”, “for 60” for “for 300”

Sequence of FcRn (Acro Biosystems) (P55899 24-297 limits assumed, chain 1 of 2): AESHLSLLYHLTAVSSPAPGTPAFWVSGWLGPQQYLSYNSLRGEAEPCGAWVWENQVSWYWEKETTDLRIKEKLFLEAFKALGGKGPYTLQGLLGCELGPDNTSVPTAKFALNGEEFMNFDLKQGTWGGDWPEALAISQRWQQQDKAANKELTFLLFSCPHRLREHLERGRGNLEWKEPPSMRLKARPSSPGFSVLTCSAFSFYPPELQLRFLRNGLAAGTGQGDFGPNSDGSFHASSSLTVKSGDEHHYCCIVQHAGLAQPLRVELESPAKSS
Sequence of FcRn (Acro Biosystems) (P61769 21-119 limits assumed, chain 2 of 2): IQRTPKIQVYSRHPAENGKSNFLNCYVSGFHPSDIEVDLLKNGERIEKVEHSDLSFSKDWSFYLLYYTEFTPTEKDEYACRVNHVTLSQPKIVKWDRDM
T5 sequence (P08637 17-208 limits assumed): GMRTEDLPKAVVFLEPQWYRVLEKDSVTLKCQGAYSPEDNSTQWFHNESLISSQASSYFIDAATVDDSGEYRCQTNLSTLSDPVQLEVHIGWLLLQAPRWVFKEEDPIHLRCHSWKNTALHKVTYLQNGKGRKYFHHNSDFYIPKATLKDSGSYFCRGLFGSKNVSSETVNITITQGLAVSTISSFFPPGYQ
T2 sequence (P08637 17-208 F176V limits assumed): as the sequence (P08637 17-208 limits assumed) above, with F160V counted along it
T6 sequence (P12314 16-288 limits assumed): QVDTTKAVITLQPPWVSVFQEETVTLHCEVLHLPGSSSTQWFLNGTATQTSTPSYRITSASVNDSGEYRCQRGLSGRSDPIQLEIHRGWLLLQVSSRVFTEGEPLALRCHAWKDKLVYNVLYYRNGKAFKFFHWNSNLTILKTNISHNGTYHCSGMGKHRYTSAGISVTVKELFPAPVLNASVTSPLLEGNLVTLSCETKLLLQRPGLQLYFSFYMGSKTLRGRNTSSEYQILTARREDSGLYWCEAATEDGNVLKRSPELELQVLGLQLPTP

B1: Fc variant m1 (other)
chain: DKTHTCPPCPAPELLGGPSVFLFPPKPKDTLYITREPEVTCVVVDVSHEDPEVKFNWYVDGVEVHNAKTKPREEQYNSTYRVVSVLTVLHQDWLNGKEYKCKVSNKALPAPIEKTISKAKGQPREPQVYTLPPSRDELTKNQVSLTCLVKGFYPSDIAVEWESNGQPENNYKTTPPVLDSDGSFFLYSKLTVDKSRWQQGNVFSCSVMHEALKFHYTQKSLSLSP
modifications: N-glycan with 2,6-sialic acid (variant co-expressed with human GT and ST in ExpiCHO-S cells)
notes: also called control m1
- kon [1]: 214000 M⁻¹ s⁻¹
- Kd [2]: 2050 nM
- Kd [3]: 1710 nM
- Kd [4]: 2560 nM
- Kd [5]: 10700 nM
- Kd [6]: 7210 nM
- Kd [7]: 316 nM

B2: Fc variant m3 (other)
chain: B1 chain with F21A
modifications: N-glycan with 2,6-sialic acid (variant co-expressed with human GT and ST in ExpiCHO-S cells)
notes: Fc fragment variant of IgG1
- kon [1]: 272000 M⁻¹ s⁻¹

B3: Fc variant m4 (other)
chain: B1 chain with F23A
modifications: N-glycan with 2,6-sialic acid (variant co-expressed with human GT and ST in ExpiCHO-S cells)
notes: Fc fragment variant of IgG1
- kon [1]: 298000 M⁻¹ s⁻¹

B4: Fc variant m6 (other)
chain: B1 chain with V44A
modifications: N-glycan with 2,6-sialic acid (variant co-expressed with human GT and ST in ExpiCHO-S cells)
notes: Fc fragment variant of IgG1
- Fold change of m6 relative to m1 [8]: 1.46 fold
- Fold change of m6 relative to m1 [9]: 0.97 fold
- Fold change of m6 relative to m1 [10]: 1 fold
- Fold change of m6 relative to m1 [11]: 1.57 fold
- Fold change of m6 relative to m1 [12]: 0.75 fold
- Fold change of m6 relative to m1 [13]: 0.99 fold
- kon [1]: 212000 M⁻¹ s⁻¹
- Kd [2]: 1400 nM
- Kd [3]: 1760 nM
- Kd [4]: 2560 nM
- Kd [5]: 6820 nM
- Kd [6]: 9670 nM
- Kd [7]: 319 nM

B5: Fc variant m7 (other)
chain: B1 chain with V44E
modifications: N-glycan with 2,6-sialic acid (variant co-expressed with human GT and ST in ExpiCHO-S cells)
notes: Fc fragment variant of IgG1
- Fold change of m7 relative to m1 [13]: 4.95 fold
- kon [1]: 221000 M⁻¹ s⁻¹
- Kd [7]: 63.8 nM

B6: Fc variant m8 (other)
chain: B1 chain with Y76A
notes: Fc fragment variant of IgG1, co-expressed with human GT and ST
- kon [1]: 115000 M⁻¹ s⁻¹

B7: Fc variant m9 (other)
chain: B1 chain with Y76N, N77A
notes: as for B6
- kon [1]: 208000 M⁻¹ s⁻¹

B8: Fc variant m10 (other)
chain: B1 chain with S78N, T79A, Y80S
notes: as for B6
- kon [1]: 221000 M⁻¹ s⁻¹

B9: Fc variant m11 (other)
chain: B1 chain with Y80A
modifications: N-glycan with 2,6-sialic acid (variant co-expressed with human GT and ST in ExpiCHO-S cells)
notes: Fc fragment variant of IgG1
- kon [1]: 38300 M⁻¹ s⁻¹

B10: Fc variant m5 (other)
chain: DKTHTCPPCPAPELLGGPSVFLFPPKPKDTLYITREPEVTCVVVDVSHEDPEVKFNWYVDGVEVHNAKTKPREQYNSTYRVVSVLTVLHQDWLNGKEYKCKVSNKALPAPIEKTISKAKGQPREPQVYTLPPSRDELTKNQVSLTCLVKGFYPSDIAVEWESNGQPENNYKTTPPVLDSDGSFFLYSKLTVDKSRWQQGNVFSCSVMHEALKFHYTQKSLSLSP
modifications: N-glycan with 2,6-sialic acid (variant co-expressed with human GT and ST in ExpiCHO-S cells)
notes: Fc fragment variant of IgG1
- kon [1]: 347000 M⁻¹ s⁻¹

Source: patent US20250043026A1 (SHANGHAI BAO PHARMACEUTICALS, published 2025)
